Test results published in the Immune Epitope Database (IEDB).
pIC50, pKd: −log10 of the molar value. Values belong to the sequence of their own block, whether it stands above or below them.

Legend:
HLA-A*01:01 = assay: IEDB peptide-MHC binding, purified MHC/competitive/fluorescence; ≥ and ≤ were set here for values at or beyond the usual limits of such assays
HLA-A*02:01 = assay: as above
HLA-A*03:01 = assay: as above
HLA-A*11:01 = assay: as above
HLA-A*24:02 = assay: as above
HLA-A*25:01 = assay: as above
HLA-A*29:02 = assay: as above
HLA-A*31:01 = assay: as above
HLA-A*68:02 = assay: as above
HLA-B*07:02 = assay: as above
HLA-B*08:01 = assay: as above
HLA-B*14:02 = assay: as above
HLA-B*18:01 = assay: as above
HLA-B*35:01 = assay: as above
HLA-B*37:01 = assay: as above
HLA-B*40:02 = assay: as above
HLA-B*44:03 = assay: as above
HLA-B*51:01 = assay: as above
HLA-B*53:01 = assay: as above
HLA-B*58:01 = assay: as above
HLA-C*14:02 = assay: IEDB peptide-MHC binding, purified MHC/direct/fluorescence; filed as Kd, often an IC50 or EC50 that approximates it; ≥ and ≤ were set here for values at or beyond the usual limits of such assays; settings: source organism: Homo sapiens
[1] = source organism: Tarsius lariang

- pIC50 (HLA-A*01:01; source organism: Homo sapiens): ≤ 4.70
- pIC50 (HLA-A*02:01; source organism: Homo sapiens): 6.88
- pIC50 (HLA-A*03:01; source organism: Homo sapiens): ≤ 4.70
- pIC50 (HLA-A*11:01; source organism: Homo sapiens): ≤ 4.70
- pIC50 (HLA-A*24:02; source organism: Homo sapiens): 7.95
- pIC50 (HLA-A*25:01; source organism: Homo sapiens): ≤ 4.70
- pIC50 (HLA-A*29:02; source organism: Homo sapiens): 6.08
- pIC50 (HLA-A*31:01; source organism: Homo sapiens): ≤ 4.70
- pIC50 (HLA-A*68:02; source organism: Homo sapiens): 6.11
- pIC50 (HLA-B*07:02; source organism: Homo sapiens): ≤ 4.70
- pIC50 (HLA-B*08:01; source organism: Homo sapiens): ≤ 4.70
- pIC50 (HLA-B*14:02; source organism: Homo sapiens): ≤ 4.70
- pIC50 (HLA-B*18:01; source organism: Homo sapiens): ≤ 4.70
- pIC50 (HLA-B*35:01; source organism: Homo sapiens): ≤ 4.70
- pIC50 (HLA-B*37:01; source organism: Homo sapiens): ≤ 4.70
- pIC50 (HLA-B*40:02; source organism: Homo sapiens): ≤ 4.70
- pIC50 (HLA-B*44:03; source organism: Homo sapiens): ≤ 4.70
- pIC50 (HLA-B*51:01; source organism: Homo sapiens): ≤ 4.70
- pIC50 (HLA-B*53:01; source organism: Homo sapiens): ≤ 4.70
- pIC50 (HLA-B*58:01; source organism: Homo sapiens): ≤ 4.70
- pKd (HLA-C*14:02): 6.24
Sequence: SYMMDDLELI

- pIC50 (HLA-A*01:01; [1]): ≤ 4.70
- pIC50 (HLA-A*02:01; [1]): ≤ 4.70
- pIC50 (HLA-A*03:01; [1]): ≤ 4.70
- pIC50 (HLA-A*11:01; [1]): ≤ 4.70
- pIC50 (HLA-A*24:02; [1]): 6.24
- pIC50 (HLA-A*25:01; [1]): ≤ 4.70
- pIC50 (HLA-A*29:02; [1]): ≤ 4.70
- pIC50 (HLA-A*31:01; [1]): ≤ 4.70
- pIC50 (HLA-A*68:02; [1]): ≤ 4.70
- pIC50 (HLA-B*07:02; [1]): ≤ 4.70
- pIC50 (HLA-B*08:01; [1]): ≤ 4.70
- pIC50 (HLA-B*14:02; [1]): ≤ 4.70
- pIC50 (HLA-B*18:01; [1]): 7.36
- pIC50 (HLA-B*35:01; [1]): ≤ 4.70
- pIC50 (HLA-B*37:01; [1]): 6.40
- pIC50 (HLA-B*40:02; [1]): 7.39
- pIC50 (HLA-B*44:03; [1]): ≤ 4.70
- pIC50 (HLA-B*51:01; [1]): ≤ 4.70
- pIC50 (HLA-B*53:01; [1]): ≤ 4.70
- pIC50 (HLA-B*58:01; [1]): ≤ 4.70
Sequence: TEAEKWPFF
